Laboratory results reported in patent US20060045883A1 (published 2006).

Legend:
[1] = molecular target: T1, HLA-A2.1 heavy chain with I125-labeled beta2-microglobulin (heterotrimer dissociation assay) (human, I^125-labeled); experiment: I125-beta2-microglobulin dissociation assay
T1 construct: T1/2 is the half-time of dissociation of labeled beta2-microglobulin from the heavy chain/peptide/beta2-microglobulin complex; also called HLA-A2.1 heavy chain / beta2-microglobulin complex

[2] = molecular target: T2, HLA-A2.1 (HLA-A*0201) on the surface of T2 cells (human); experiment: T2 stabilisation assay, indirect flow cytometry with BB7.2 (FIG. 34)
T2 construct: also called HLA-A2 on T2

[3] = molecular target: T1, HLA-A2.1 heavy chain with I125-labeled …; experiment: dissociation of I125-labeled beta2-microglobulin from the heavy chain/peptide/beta2-microglobulin complex, HPLC gel filtration
[4] = molecular target: T2, HLA-A2.1 (HLA-A*0201) on the surface of …; experiment: T2 stabilisation assay, flow cytometry

Binder	binding result [1]	binding result [2]	T1/2 [3]	binding result [4]
KLLLALAGL [MY2 peptide of myeloperoxidase]	binds	binds	–	–
RLFPDFFTRV [PR2 peptide of proteinase 3]	–	–	140 min	–
KLNDILLIQL (also called PR71) [PR7I peptide of proteinase 3 (amino acid 115-124, Ile 119 variant)]	–	–	–	binds
LLSYFKQPV [MY3 peptide of myeloperoxidase]	binds	binds	–	–
SLWRRPFNV [MY1 peptide of myeloperoxidase]	binds	binds	–	–

Other lines, results leading:

binding result [1]	binding result [2]	T1/2 [3]	binding result [4]	Binder
binds	binds	–	–	RLFEQVMRI [MY4 peptide of myeloperoxidase]
binds	binds	–	–	LIQPFMFRL [MY5 peptide of myeloperoxidase]
–	–	1460 min	–	VLQELNVTV (Synthetic peptide, minimum 95% purity) [PR1 (aa 169-177) peptide of proteinase 3]
–	–	–	binds	KLNDVLLIQL [PR7V peptide of proteinase 3 (amino acid 115-124, Val 119 variant)]
